Data taken from paper PMC10397247.

Legend:
Assay in all cases: two-hybrid library CCmax;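 further: natural log of median RNA to DNA barcode read ratio; higher means stronger binding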
4H2354-AA = biological target: T1, 4H2354-AA
T1 chain: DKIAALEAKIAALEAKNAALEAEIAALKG

4H2883-AA = biological target: T2, 4H2883-AA; conditions: mean of both orientations
T2 chain: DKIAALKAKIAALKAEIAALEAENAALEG

4H678-AA = biological target: T3, 4H678-AA; conditions: mean of both orientations
T3 chain: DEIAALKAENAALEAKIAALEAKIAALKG

4H335-AA = biological target: T4, 4H335-AA; conditions: mean of both orientations
T4 chain: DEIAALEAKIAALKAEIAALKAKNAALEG

4H3655-AA = biological target: T5, 4H3655-AA; conditions: mean of both orientations
T5 chain: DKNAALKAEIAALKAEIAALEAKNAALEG

4H342-AA = biological target: T6, 4H342-AA; conditions: mean of both orientations
T6 chain: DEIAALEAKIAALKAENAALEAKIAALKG

4H454-AA = biological target: T7, 4H454-AA; conditions: mean of both orientations
T7 chain: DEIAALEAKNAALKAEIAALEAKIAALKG

4H881-AA = biological target: T8, 4H881-AA; conditions: mean of both orientations
T8 chain: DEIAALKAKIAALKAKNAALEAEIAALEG

4H906-AA = biological target: T9, 4H906-AA; conditions: mean of both orientations
T9 chain: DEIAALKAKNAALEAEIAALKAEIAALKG

4H2617-AA = biological target: T10, 4H2617-AA; conditions: mean of both orientations
T10 chain: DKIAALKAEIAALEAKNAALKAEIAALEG

4H317-AA = biological target: T11, 4H317-AA; conditions: mean of both orientations
T11 chain: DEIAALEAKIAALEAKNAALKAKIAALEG

4H3606-AA = biological target: T12, 4H3606-AA; conditions: mean of both orientations
T12 chain: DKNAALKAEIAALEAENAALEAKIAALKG

4H2505-AA = biological target: T13, 4H2505-AA; conditions: mean of both orientations
T13 chain: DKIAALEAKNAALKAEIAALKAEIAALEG

4H429-AA = biological target: T14, 4H429-AA; conditions: mean of both orientations
T14 chain: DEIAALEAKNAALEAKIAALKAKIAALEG

4H3427-AA = biological target: T15, 4H3427-AA; conditions: mean of both orientations
T15 chain: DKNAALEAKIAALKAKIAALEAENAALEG

4H48-AA = biological target: T16, 4H48-AA; conditions: mean of both orientations
T16 chain: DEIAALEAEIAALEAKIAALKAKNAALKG

4H2466-AA = biological target: T17, 4H2466-AA
T17 chain: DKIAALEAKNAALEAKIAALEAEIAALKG

4H2393-AA = biological target: T18, 4H2393-AA; conditions: mean of both orientations
T18 chain: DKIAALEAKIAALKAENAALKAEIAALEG

4H3112-AA = biological target: T19, 4H3112-AA; conditions: mean of both orientations
T19 chain: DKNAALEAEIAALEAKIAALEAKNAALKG

4H2944-AA = biological target: T20, 4H2944-AA; conditions: mean of both orientations
T20 chain: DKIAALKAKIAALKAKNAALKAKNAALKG

4H566-AA = biological target: T21, 4H566-AA; conditions: mean of both orientations
T21 chain: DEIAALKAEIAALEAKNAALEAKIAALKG

4H780-AA = biological target: T22, 4H780-AA; conditions: mean of both orientations
T22 chain: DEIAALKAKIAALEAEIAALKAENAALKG

4H2754-AA = biological target: T23, 4H2754-AA; conditions: mean of both orientations
T23 chain: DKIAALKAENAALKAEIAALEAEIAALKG

4H2729-AA = biological target: T24, 4H2729-AA; conditions: mean of both orientations
T24 chain: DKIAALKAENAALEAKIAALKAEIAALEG

4H794-AA = biological target: T25, 4H794-AA; conditions: mean of both orientations
T25 chain: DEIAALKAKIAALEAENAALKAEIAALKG

4H2575-AA = biological target: T26, 4H2575-AA; conditions: mean of both orientations
T26 chain: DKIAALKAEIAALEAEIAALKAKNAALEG

4H605-AA = biological target: T27, 4H605-AA; conditions: mean of both orientations
T27 chain: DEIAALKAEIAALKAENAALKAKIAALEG

4H3921-AA = biological target: T28, 4H3921-AA; conditions: mean of both orientations
T28 chain: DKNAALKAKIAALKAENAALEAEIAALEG

4H993-AA = biological target: T29, 4H993-AA; conditions: mean of both orientations
T29 chain: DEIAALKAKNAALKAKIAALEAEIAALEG

4H2837-AA = biological target: T30, 4H2837-AA; conditions: mean of both orientations
T30 chain: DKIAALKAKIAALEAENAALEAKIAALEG

4H717-AA = biological target: T31, 4H717-AA; conditions: mean of both orientations
T31 chain: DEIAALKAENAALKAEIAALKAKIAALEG

4H2642-AA = biological target: T32, 4H2642-AA; conditions: mean of both orientations
T32 chain: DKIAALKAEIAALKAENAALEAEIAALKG

4H3343-AA = biological target: T33, 4H3343-AA; conditions: mean of both orientations
T33 chain: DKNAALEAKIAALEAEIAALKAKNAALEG

4H3844-AA = biological target: T34, 4H3844-AA; conditions: mean of both orientations
T34 chain: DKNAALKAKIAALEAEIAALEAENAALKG

4H2949-AA = biological target: T35, 4H2949-AA; conditions: mean of both orientations
T35 chain: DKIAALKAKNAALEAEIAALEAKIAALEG

4H3627-AA = biological target: T36, 4H3627-AA; conditions: mean of both orientations
T36 chain: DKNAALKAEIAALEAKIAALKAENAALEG

B1: 4H2354-AA (peptide)
chain: DKIAALEAKIAALEAKNAALEAEIAALKG
interaction score (4H2354-AA): 2.28 | interaction score (4H2883-AA): -1.31 | interaction score (4H678-AA): -1.46 | interaction score (4H335-AA): -1.35 | interaction score (4H3655-AA): -1.28 | interaction score (4H342-AA): 1.11 | interaction score (4H454-AA): -0.846 | interaction score (4H881-AA): -0.238 | interaction score (4H906-AA): -1.21 | interaction score (4H2617-AA): 0.763 | interaction score (4H317-AA): 0.391 | interaction score (4H3606-AA): -0.995 | interaction score (4H2505-AA): 0.629 | interaction score (4H429-AA): -1.58 | interaction score (4H3427-AA): -1.67 | interaction score (4H48-AA): -1.39 | interaction score (4H2466-AA): -1.18 | interaction score (4H2393-AA): -0.967 | interaction score (4H3112-AA): -1.26 | interaction score (4H2944-AA): -1.22 | interaction score (4H566-AA): 0.225 | interaction score (4H780-AA): -1.35 | interaction score (4H2754-AA): -1.42 | interaction score (4H2729-AA): -1.03 | interaction score (4H794-AA): -1.09 | interaction score (4H2575-AA): -1 | interaction score (4H605-AA): -1.45 | interaction score (4H3921-AA): -2.02 | interaction score (4H993-AA): -1.38 | interaction score (4H2837-AA): -0.0493 | interaction score (4H717-AA): -1.79 | interaction score (4H2642-AA): -0.757 | interaction score (4H3343-AA): -1.47 | interaction score (4H3844-AA): -1.42 | interaction score (4H2949-AA): -1.56 | interaction score (4H3627-AA): -1.59
